Values joined by “and” are separate entries in the source; they are usually repeats but may differ in a detail not shown here. Identical values can stand only once.
Biological target: CD16 expressed by Jurkat-CD16 cells (UniProt P08637)
Experiment: flow cytometry on cells

Sequence of UniProt P08637 (P08637 17-254): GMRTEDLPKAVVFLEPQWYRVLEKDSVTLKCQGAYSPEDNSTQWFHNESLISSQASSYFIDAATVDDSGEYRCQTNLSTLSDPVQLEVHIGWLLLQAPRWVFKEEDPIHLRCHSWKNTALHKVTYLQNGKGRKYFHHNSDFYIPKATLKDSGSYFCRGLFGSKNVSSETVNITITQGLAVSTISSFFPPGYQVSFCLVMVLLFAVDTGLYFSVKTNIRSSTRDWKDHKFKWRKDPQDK

MFI of bound competitor anti-CD16-PE/3G8: 25.1 and 28.1 and 21.8
Substance: goat-produced cetuximab (gCetuximab) (antibody)

Reference: paper PMC7655094
